This note sets out measurements from publication PMC8508679.

The target of the experiment is Trop2 ectodomain (N120Q, N208Q) (human) (UniProt P09758). In words: crystal structure; X-ray, 2.81 Å; sitting drop vapor diffusion, 1.6 M ammonium sulfate, 0.5 M NaCl, 13.3 mM EDTA, 0.1 M MES pH 5.8, protein at 10 mg/mL; crystal contacts analysed with PISA.

The substance “Trop2 ectodomain (N120Q, N208Q) (from UniProt P09758 27-274) (domain or fragment)” returned a stoichiometry N of 2.

The stoichiometry N is a count of units in the complex or per binding partner.
